{"source": "paper PMC7721721", "test_system": "anti-digoxigenin IgG antibody (sheep)", "assay": "fluorescence (FRET) titration", "conditions": "5'-digoxigenin; 25 mM HEPES pH 7.2, 0.1 M NaCl, 37 C (FRET titrations, templated reactions); native PAGE binding buffer not given in the material"}
{"sequence": "GTCACCGCAAAATAAGATTTTTTTTTTGAGTCGAATTCGTACC [DIG-Q-strand#2 (DIG-conjugated templating strand)]", "values": [{"measurement": "Kd", "result": 3.6, "unit": "nM"}]}
